Laboratory results as given in patent publication US20190151304A1, “METHODS AND PHARMACEUTICAL COMPOSITIONS FOR THE TREATMENT OF AUTOIMMUNE INFLAMMATORY” (INSERM (INSTITUT NATIONAL DE LA SANTÉ ET DE LA RECHERCJAE …, priority 2016, published 2019).
No end group written: not given here.

Key:
[1] = target: T1, OX1R (Homo sapiens, UniProt O43613, A280G); test: Ca2+ mobilization assay in HEK-OX1R cells (FluoForte); assay type: cell-based; conditions: 1 μM
T1 construct: HEK cells expressing recombinant native OX1R (HEK-OX1R); expressed in transfected cells; host or cells: HEK cells (HEK-OX1R)
T1 sequence (O43613 1-425 A280G): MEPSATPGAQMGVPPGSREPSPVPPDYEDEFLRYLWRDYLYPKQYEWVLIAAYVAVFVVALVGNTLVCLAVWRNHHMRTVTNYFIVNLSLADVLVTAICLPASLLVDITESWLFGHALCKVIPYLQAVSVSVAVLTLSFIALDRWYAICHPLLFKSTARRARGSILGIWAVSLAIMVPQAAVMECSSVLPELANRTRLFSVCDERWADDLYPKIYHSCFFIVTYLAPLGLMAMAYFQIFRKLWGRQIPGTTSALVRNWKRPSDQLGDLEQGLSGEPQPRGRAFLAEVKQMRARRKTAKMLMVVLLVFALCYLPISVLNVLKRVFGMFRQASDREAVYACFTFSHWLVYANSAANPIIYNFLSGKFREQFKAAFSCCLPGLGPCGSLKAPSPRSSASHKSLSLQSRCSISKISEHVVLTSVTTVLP

[2] = system: colon adenocarcinoma HT-29 cells; test: Cells growth determination, HT-29 cells; assay type: cell-based; conditions: 48 hr; OxA 0.1 μM, SB408124 increasing concentrations
Description: FIG. 12: Determination of the inhibition of cellular growth of HEK-OX1R cells and colon adenocarcinoma cells (HT-29) induced by 0.1 μM of OxA or various concentrations of SB408124 antagonist. HEK-OX1R cells (black column) and HT-29 cells (white column) were incubated with 0.1 μM of OxA and indicated increasing concentration of SB408124, and cells were counted after 48 hr incubation. Results are expressed as the percentage of total viable cells.
Cells growth determination and apoptosis assay: HEK-OX1R cells or colon adenocarcinoma HT-29 cells were seeded, grown and maintained at 37° C. in a humidified 5% CO2/air incubator. After 24 hr culture, cells were treated with or without Orexin-A peptide or SB408124 antagonist, previously dissolved in DMSO, to be tested at the concentration indicated in the figure legends. After 48 hr of treatment, adherent cells were harvested by Trip1E (Life Technologies, Saint Aubin, France) and manually counted. Apoptosis was determined using the Guava PCA system and the Guava nexin kit.

What does the source list for “OxA: neuropeptide, endogenous ligand of OX1R and OX2R, with two disulphide bridges (QPLPDCCRQKTCSCRLYELLHGAGNHAAGILTL; disulfide (positions not given here); ends not checked; also: two disulphide bridges, pairing not given here; UniProt O43612 34-66, looked up)”?
Ca2+ mobilization induced in HEK-OX1R cells [1]: large and transient; Inhibition of cellular growth of HT-29 cells [2]: strong inhibition
